According to patent publication US20160032259A1 (KOREA ADVANCED INSTITUTE OF SCIENCE AND TECHNOLOGY KAIST, published 2016):

B1: hVEGF-A165 (ligand, human, UniProt P15692-4 27-191, looked up)
chain: APMAEGGGQNHHEVVKFMDVYQRSYCHPIETLVDIFQEYPDEIEYIFKPSCVPLMRCGGCCNDEGLECVPTEESNITMQIMRIKPHQGQHIGEMSFLQHNKCECRPKKDRARQENPCGPCSERRKHLFVQDPQTCKCSCKNTDSRCKARQLELNERTCRCDKPRR
notes: The cell assays name only 'VEGF-A' without the isoform
B2: VEGF-Trap (Fc fusion, UniProt P17948 129-230, looked up, not shown: a dimerising Fc or GST)
chain: SDTGRPFVEMYSEIPEIIHMTEGRELVIPCRVTSPNITVTLKKFPLDTLIPDGKRIIWDSRKGFIISNATYKEIGLLTCEATVNGHLYKTNYLTHRQTNTIIDVVLSPSHGIELSVGEKLVLNCTARTELNVGIDFNWEYPSSKHQHKKLVNRDLKTQSGSEMKKFLSTLTIDGVTRSDQGLYTCAASSGLMTKKNSTFVRVHEK
modifications: N-glycans at Asn61, Asn93 and Asn328
B3: PlGF (ligand)
chain: LPAVPPQQWALSAGNGSSEVEVVPFQEVWGRSYCRALERLVDVVSEYPSEVEHMFSPSCVSLLRCTGCCGDENLHCVPVETANVTMQLLKIRSGDRPSYVELTFSQHVRCECRHSPGRQSPDMPGDFRADA

Columns and labels:
PlGF [1] = molecular target: B3; test: solid phase binding ELISA; PlGF coated; reference VT
Method: (§1) The binding affinities of VEGF-Grabs to ligands were measured by ELISA as described previously. Briefly, the MaxiSorp plates (Nunc) were coated with either hVEGF-A₁₆₅(150 ng/ml), PlGF (62.5 ng/ml), or hVEGF-B (125 ng/ml) and serially increasing amounts (0.1 nM-10 μM) of VEGF-Grabs or VEGF-Trap were added. After washing, the plates were incubated with HRP-conjugated goat anti-human Fc antibody. Then, 3,3′,5,5′-tetramethylbenzidine (TMB) solution (Sigma-Aldrich) was added and absorbance was measured by ELISA reader (BioRad) at 450 nm.

hVEGF-A165 [2] = molecular target: B1; test: solid phase binding ELISA; hVEGF-A165 coated, Fc fusion titrated, anti-human Fc-HRP
Method: as §1

PlGF [3] = molecular target: B3; test: solid phase binding ELISA; PlGF coated, Fc fusion titrated, anti-human Fc-HRP
Method: as §1

hVEGF-A165 [4] = molecular target: B1; test: solid phase binding ELISA; hVEGF-A165 coated; reference VT
Method: as §1

hVEGF-A165 [5] = molecular target: B1; test: cell-based or functional assay
VEGF-Trap [6] = molecular target: B2; test: solid phase binding ELISA; hVEGF-A165 coated, Fc fusion titrated, anti-human Fc-HRP
Method: as §1

VEGF-Trap [7] = molecular target: B2; test: solid phase binding ELISA; PlGF coated, Fc fusion titrated, anti-human Fc-HRP
Method: as §1

| fold more potent binding affinity than VT (PlGF [1]) | Kd (hVEGF-A165 [2]) | Kd (PlGF [3]) | fold higher affinity than VT (hVEGF-A165 [4]) | IC50 of VEGF-A-induced proliferation of HUVECs (hVEGF-A165 [5]) | fold more efficient than VT in inhibiting VEGF-A-induced proliferation of HUVECs (hVEGF-A165 [5]) | Kd (VEGF-Trap [6]) | Kd (VEGF-Trap [7]) | Binder |
| --- | --- | --- | --- | --- | --- | --- | --- | --- |
| 18.5 fold | 0.79 nM | 2.8 nM | 1.1 fold | 1.7 nM | 2.8 fold | – | – | VEGF-Grab1 (Fc fusion, O-linked glycan (HexNAc1Hex1NeuAc1) at Ser135; N-glycans at Asn61, Asn93 and Asn308; no evidence of O-glycosylation at Thr138, Produced in CHO cells, protein A purified; also called G1; VEGF-Grabs) EFGRPFVEMYSEIPEIIHMYEGRELVIPCRVTSPNITVTLKKFPLDTLIPDGKRIIWDSRKGFIISNATYKEIGLLTCEATVNGHLYKTNYLTHRQTNTIIDVQISTPSPVTLLRGHTLVLNCTRTTPLNTRVQMTWSYPDEKNKRASVRRRIDQSNSHANIFYSVLTIDKMQNKDKGLYTCRVRSGPSFKSVNTSVHIYDKALEDKTHTCPPCPAPELLGGPSVFLFPPKPKDTLMISRTPEVTCVVVDVSHEDPEVKFNWYVDGVEVHNAKTKPREEQYNSTYRVVSVLTVLHQDWLNGKEYKCKVSNKALPAPIEKTISKAKGQPREPQVYTLPPSREEMTKNQVSLTCLVKGFYPSDIAVEWESNGQPENNYKYYPPVLDSDGSFFLYSKKTVDKSRWQQGNVFSCSVMHEALHNHYTQKSLSLSPGK |
| 6.7 fold | 0.56 nM | 6.9 nM | 1.5 fold | 2.4 nM | 2 fold | – | – | VEGF-Grab3 (Fc fusion, O-linked glycan (HexNAc1Hex1NeuAc1) at Ser135; N-glycans at Asn61, Asn93 and Asn308; mutated Asn172 not glycosylated; no evidence of O-glycosylation at Thr138, Produced in CHO cells, protein A purified; also called G3; VEGF-Grabs) EFGRPFVEMYSEIPEIIHMYEGRELVIPCRVTSPNITVTLKKFPLDTLIPDGKRIIWDSRKGFIISNATYKEIGLLTCEATVNGHLYKTNYLTHRQTNTIIDVQISTPSPVTLLRGHTLVLNCTRTTPLNTRVQMTWSYPDEKNKNASVRRRIDQSNSHANIFYSVLTIDKMQNKDKGLYTCRVRSGPSFKSVNTSVHIYDKALEDKTHTCPPCPAPELLGGPSVFLFPPKPKDTLMISRTPEVTCVVVDVSHEDPEVKFNWYVDGVEVHNAKTKPREEQYNSTYRVVSVLTVLHQDWLNGKEYKCKVSNKALPAPIEKTISKAKGQPREPQVYTLPPSREEMTKNQVSLTCLVKGFYPSDIAVEWESNGQPENNYKYYPPVLDSDGSFFLYSKKTVDKSRWQQGNVFSCSVMHEALHNHYTQKSLSLSPGK |
| – | – | – | – | – | – | 0.84 nM | – | B1 |
| – | – | – | – | 4.8 nM | – | – | – | B2 |
| – | – | – | – | – | – | – | 46 nM | B3 |
